Consider two substances from IntAct's records for PubMed 21037566.

The test has as its target lef_bacan lef (UniProt P15917).

Consider “Protective antigen (Bacillus anthracis) (from UniProt P13423) H240A”, for which the “effect of a mutation on the interaction” value is “disrupting interaction”.
To “Protective antigen (Bacillus anthracis) (from UniProt P13423) L216A” belongs “disrupting interaction”.
